Substrate in the series: NCC(=O)CCC(=O)O
The experiment in a line: The Michaelis-Menten rate of reaction catalyzed by ALA dehydratase from Bacillus subtilis measured spectrophotometrically.

B1: Delta-aminolevulinic acid dehydratase (Homo sapiens), P13716 (protein)
chain: MQPQSVLHSGYFHPLLRAWQTATTTLNASNLIYPIFVTDVPDDIQPITSLPGVARYGVKRLEEMLRPLVEEGLRCVLIFGVPSRVPKDERGSAADSEESPAIEAIHLLRKTFPNLLVACDVCLCPYTSHGHCGLLSENGAFRAEESRQRLAEVALAYAKAGCQVVAPSDMMDGRVEAIKEALMAHGLGNRVSVMSYSAKFASCFYGPFRDAAKSSPAFGDRRCYQLPPGARGLALRAVDRDVREGADMLMVKPGMPYLDIVREVKDKHPDLPLAVYHVSGEFAMLWHGAQAGAFDLKAAVLEAMTAFRRAGADIIITYYTPQLLQWLKEE
By Km is commonly meant the concentration of substrate that gives half-maximal velocity. Consider B1, for which the Km is 241 µM [middle of 4 runs].

Values taken from ChEMBL document CHEMBL1128918, “Deuterium isotope effects on porphobilinogen synthesis catalysed by 5-aminolaevulinic acid dehydratase” (Bioorg Med Chem Lett, 1996).
